What was measured:
CD138+ MM1.S cells [1] = assay: Antibody binding to MM1.S cells by flow cytometry; set-up: species or system human; settings: FIG. 3
Experimental: (§1) In one experiment, the humanized variants of monoclonal antibody 2810 were assessed for their capacity to bind to CD138 on the surface of cells. Briefly, the humanized variants of antibody 2810 were produced in HEK 293 cells following transient transfection. The antibodies were then serially diluted three-fold. Antibody binding to membrane CD138 was evaluated using the CD138+ human lymphoblastic myeloma cell line U266 and quantified by flow cytometry. Antibody cell binding was reported as geometric mean fluorescence intensity (MFI). Binding data were plotted using nonlinear regression analysis and a 4-parameter curve fit.
(§2) First, humanized anti-CD138 antibody variants 3821, 4321, 4320, 4521, 4326, and 3820 were evaluated for binding to three different CD138+ multiple myeloma related cell lines: MM1.S, LP-1, and RPMI 8226. Antibody binding was measured by flow cytometry as described in Example 15.

CD138+ MM1.S cells [2] = assay: Luciferase-based ADCC reporter assay against MM1.S; type: cell-based, human; settings: 3-fold dilutions from 10 μg/mL, E:T 10:1, 16 h, FIG. 4
Experimental: (§3) In another experiment, the ADCC activity of the humanized variants of anti-CD138 antibody 2810 was assessed. Briefly, the humanized variant antibodies were produced by transient transfection of HEK 293 cells metabolically altered for purposes of reduced Fc fucosylation. The antibodies were then evaluated for antibody dependent cellular cytotoxicity (ADCC) activity against CD138^+ human lymphoblastic myeloma U266 cells in a luciferase based ADCC reporter assay using, as effector cells, engineered Jurkat cells stably transfected with the human FcγRIIIa receptor. U266 cells were incubated with mAbs that were 3-fold serially diluted from a starting concentration of 3 μg/mL and added to effector cells and CD138+U266 multiple myeloma target cells at a cell ratio of effector:target of 10:1. After 16-hour incubation at 37° C., luciferase activity was assessed as a measure of ADCC activity and reported as relative luminescence units (RLU). ADCC data were plotted using nonlinear regression analysis and a 4-parameter curve fit.
(§4) Second, humanized anti-CD138 antibody variants 3821, 4321, 4320, 4521, 4326, and 3820 were assessed for ADCC activity against U266, MM1.S, LP-1, and RPMI 8226 CD138^+ multiple myeloma cell lines using a luciferase based ADCC reporter assay, as described in Example 15. CD138^+ target cells were incubated with anti-CD138 antibodies that were serially diluted 3-fold starting at a concentration of 10 μg/mL, and subsequently added to FcγRIIIa effector cells at a cell ratio of effector:target cell (E:T of 10:1). After a 16 hour incubation at 37° C., cellular luciferase levels were quantified as a measure of ADCC activity and reported as relative luminescence units (RLU).

CD138+ LP-1 cells [3] = assay: Antibody binding to LP-1 cells by flow cytometry; set-up: species or system human; settings: FIG. 3
Experimental: as §1, §2

CD138+ LP-1 cells [4] = assay: Luciferase-based ADCC reporter assay against LP-1; type: cell-based, human; settings: 3-fold dilutions from 10 μg/mL, E:T 10:1, 16 h, FIG. 4
Experimental: as §3, §4

[5] = test system: CD138+ human lymphoblastic myeloma U266 cells; assay: Luciferase-based ADCC reporter bioassay (Jurkat FcγRIIIa effector cells) against U266; type: cell-based; settings: 3-fold dilutions from 10 μg/mL, E:T 10:1, 16 h, FIG. 4
Experimental: as §3, §4
Briefly, the two antibodies were evaluated for ADCC activity against CD138^+ human lymphoblastic myeloma U266 cells in a luciferase based ADCC reporter assay using, as effector cells, engineered Jurkat cells stably transfected with the human FcγRIIIa receptor as described in Example 1. This comparison is summarized in FIG. 9B with data normalized as fold-induction of ADCC activity relative to the minus antibody control.

CD138+ RPMI 8226 cells [6] = assay: Luciferase-based ADCC reporter assay against RPMI 8226; type: cell-based, human; settings: 3-fold dilutions from 10 μg/mL, E:T 10:1, 16 h, FIG. 4
Experimental: as §3, §4

[7] = Differential scanning fluorescence (DSF) thermal stability; type: physicochemical; settings: PBS pH 7.4, 25-95 °C; for TM1: first thermal transition; for TM2: second thermal transition
Excerpt: Thermal stability represents an important property of antibodies and is used as a predictive surrogate of pharmaceutical drug stability in humans based on a relative stability profile as characterized by differential thermal melting profiles. Several methods exist for evaluation of product stability based on thermal melting. These include, for example, circular dichroism (CD), differential scanning calorimetry (DSC), and differential scanning fluorescence (DSF), among others. In this example, the thermal stabilities of select humanized anti-CD138 antibodies were evaluated by DSF. DSF was used to monitor the conformational stability of a protein as it was exposed to increasing thermal stress. The dye, SYPRO Orange®, fluoresces in a hydrophobic environment, such as hydrophobic core residues that are exposed during thermally triggered protein unfolding, or denaturation. In brief, SYPRO® Orange Dye (Sigma Chemical) was diluted 1:500 in phosphate buffered saline (PBS), pH 7.4, without addition of any detergents. Antibodies were likewise diluted in PBS to a target concentration of 0.5 mg/mL. 15 μl of diluted antibody and fluorescent dye were added 1:1 (v/v) into a 96 well microtiter plate and thoroughly mixed by repeat pipetting. Thermal scans were carried out using a real-time quantitative PCR (qPCR) thermal cycler with fluorescence detection capabilities. Scans were initiated at 25° C. with incremental increase in well temperature of 1° C. ramp/minute from 25° C. to 95° C. The mid-point (Tm) between native state and the first unfolding event was reported as the transition temperature or melt temperature (TM). TMs were then calculated based on transformation of the data using the first derivative of the fluorescence signal versus time. (dfluoresence/dtime) (FIG. 7).

CD138+ RPMI 8226 cells [8] = assay: Antibody binding to RPMI 8226 cells by flow cytometry; set-up: species or system human; settings: FIG. 3
Experimental: as §1, §2

Experimental for MM1.S (Luc) cells: The mice (N=9 per group) were distributed to ensure that the mean whole-body tumor burden for all groups was within 10% of the overall mean whole-body tumor burden for the study population. Treatment was initiated on day 14 post tumor implant. […] Treatment in all groups was discontinued at Day 53; surviving animals were monitored for an additional 3 weeks out to Day 73 (discontinuation phase of the study).
Whole body tumor burden was monitored by bioluminescence. […] BLI was performed using an IVIS Lumina S5 (PerkinElmer, MA). Animals were imaged five at a time under 1-2% isoflurane gas anesthesia. […] Large binning of the CCD chip was used, and the exposure time was adjusted (5 seconds to 2 minutes) to obtain at least several hundred counts per image and to avoid saturation of the CCD chip Animals were imaged once weekly at staging and on days 14, 21, 29, 36, 43, 53, and 73 (end of study) for all animals remaining on study. Images were analyzed using Living Image 4.7.1 (PerkinElmer, MA) software. Whole body fixed-volume regions of interest (ROIs) were placed on prone and supine images for each individual animal and labeled based on animal identification. Total flux (photons/sec) was calculated and exported for all ROIs to facilitate analyses between groups. The prone and supine ROIs were summed together to estimate whole body tumor burden. Subject ROIs were also placed over each mouse, and region-specific ROIs were placed over spine and hindlimbs for each animal. These ROIs were then quantified independent of the whole-body ROIs in order to calculate signal from only hind limbs or spine.
Primary and secondary efficacy endpoints were generated using in vivo whole body BLI and included tumor burden assessment as described herein. Endpoints included whole body BLI ratio T/C (where T=treatment group and C=vehicle control) measured on each imaging day and reported on day 36 and tumor growth delay as measured as time to tumor burden as pre-defined as a BLI signal of 1.0×10^9 p/s. Additional efficacy endpoints included tumor regression, tumor free survival (TFS), and median life span normalized to vehicle control (% increased life span); this latter endpoint was calculated based on the first day of treatment and not the day of implant. Overall survival was calculated based on animals remaining on study.
Additional measurements included body weights (3× weekly), daily clinical observations and necropsy following euthanasia. Pre-defined euthanasia criteria were related to disease progression and included >20% loss in body weight or disease-related morbidity such as hind limb paralysis, paresthesia, or other signs of severe CNS or musculoskeletal impairment.

| Molecule | Change in body weight (MM1.S (Luc) cells; FIG. 21) | Loss of weight of euthanized animal (MM1.S (Luc) cells; bortezomib single agent, day 23) [%] | Treatment related death (MM1.S (Luc) cells; bortezomib single treatment group, initially 2 mg/kg, early euthanasia day 23) [%] | Survival (animals remaining on study to end of study) (MM1.S (Luc) cells; day 73, treatment discontinued day 53) | Incidence of complete or partial regression (MM1.S (Luc) cells; end of dosing phase) | Tumor growth delay (time to BLI 1.0×10^9 p/s) (MM1.S (Luc) cells; mAb 4320 4 mg/kg, bortezomib 1 mg/kg i.p. twice weekly) [days] | Increase in life span relative to vehicle control (MM1.S (Luc) cells; mAb 4320 4 mg/kg, bortezomib 1 mg/kg i.p. twice weekly, day 14-53) [%] | Tolerability / toxicity (MM1.S (Luc) cells; mouse, in vivo) | Antibody binding by flow cytometry (CD138+ MM1.S cells [1]) | ADCC activity (RLU) (CD138+ MM1.S cells [2]) | Antibody binding by flow cytometry (CD138+ LP-1 cells [3]) | ADCC activity (RLU) (CD138+ LP-1 cells [4]) | ADCC activity (RLU) [5] | ADCC activity (RLU) (CD138+ RPMI 8226 cells [6]) | TM1 [7] [°C] | TM2 [7] [°C] | Antibody binding by flow cytometry (CD138+ RPMI 8226 cells [8]) |
| --- | --- | --- | --- | --- | --- | --- | --- | --- | --- | --- | --- | --- | --- | --- | --- | --- | --- |
| CC(C)C[C@H](NC(=O)[C@H](Cc1ccccc1)NC(=O)c1cnccn1)B(O)O [bortezomib, [(1R)-3-Methyl-1-[[(2S)-1-oxo-3-phenyl-2-[(pyrazinylcarbonyl)amino]propyl]amino]butyl]boronic Acid, reference compound] | Loss of body weight | −24 | 11 | none of the animals survived | None | 10.6 | 40 | treatment related toxicity was observed |  |  |  |  |  |  |  |  |  |
| mAb 3821: humanized anti-CD138 antibody; VH SEQ ID NO: 466, VL SEQ ID NO: 476 (antibody, V domains shown) VH: QVQLVQSGAEVKKPGSSVKVSCKASGYSFSSYYMHWVRQAPGQGLEWMGTIHPSDSTANYNQKFKGRVTITVDKSTSTAYMELSSLRSEDTAVYYCANFVYWGQGTTVTVSS VL: DIVMTQTPLSLSVTPGQPASISCKSSKSLLYKDGKTYLNWFLQKPGQSPQLLIYVVSTRASGVPDRFSGSGSGTDFTLKISRVEAEDVGVYYCQQLVQYPYTFGQGTKLEIK |  |  |  |  |  |  |  |  | dose-dependent binding | induced ADCC activity | dose-dependent binding | induced ADCC activity | induced ADCC activity | induced ADCC activity | 69.1 | 77.7 | dose-dependent binding |
| mAb 4321: humanized anti-CD138 antibody; VH SEQ ID NO: 471, VL SEQ ID NO: 476 (antibody, V domains shown) VH: QVQLVQSGAEVKKPGASVKVSCKASGYSFSSYYMHWVRQAPGQGLEWMGTIHPSDSTTNYNQKFQGRVTMTVDTSTRTAYMELSSLRSEDTAVYYCANFVYWGQGTTVTVSS VL: DIVMTQTPLSLSVTPGQPASISCKSSKSLLYKDGKTYLNWFLQKPGQSPQLLIYVVSTRASGVPDRFSGSGSGTDFTLKISRVEAEDVGVYYCQQLVQYPYTFGQGTKLEIK |  |  |  |  |  |  |  |  | dose-dependent binding | induced ADCC activity | dose-dependent binding | induced ADCC activity | induced ADCC activity | induced ADCC activity | 69.3 | 76.9 | dose-dependent binding |
| mAb 4521: humanized anti-CD138 antibody; VH SEQ ID NO: 473, VL SEQ ID NO: 476 (antibody, V domains shown) VH: QVQLVQSGAEVKKPGASVKVSCKASGYNFASYYMHWVRQAPGQGLEWMGTIHPSDSTTNYNQKFKGRVTMTVDTSTSTAYMELSSLRSEDTAVYYCANFVYWGQGTTVTVSS VL: DIVMTQTPLSLSVTPGQPASISCKSSKSLLYKDGKTYLNWFLQKPGQSPQLLIYVVSTRASGVPDRFSGSGSGTDFTLKISRVEAEDVGVYYCQQLVQYPYTFGQGTKLEIK |  |  |  |  |  |  |  |  | dose-dependent binding | induced ADCC activity | dose-dependent binding | induced ADCC activity | induced ADCC activity | induced ADCC activity |  |  | dose-dependent binding |
| mAb 4326: humanized anti-CD138 antibody; VH SEQ ID NO: 471, VL SEQ ID NO: 481 (antibody, V domains shown) VH: QVQLVQSGAEVKKPGASVKVSCKASGYSFSSYYMHWVRQAPGQGLEWMGTIHPSDSTTNYNQKFQGRVTMTVDTSTRTAYMELSSLRSEDTAVYYCANFVYWGQGTTVTVSS VL: DIVMTQSPDSLAVSLGERATINCKSSQSLLYKDGKTYLNWFQQKPGQPPKLLIYVVSTRASGVPDRFSGSGSGTDFTLTISSLQAEDVAVYYCQQLVEYPYTFGQGTKLEIK |  |  |  |  |  |  |  |  | dose-dependent binding | induced ADCC activity | dose-dependent binding | induced ADCC activity | induced ADCC activity | induced ADCC activity |  |  | dose-dependent binding |
| mAb 3820: humanized anti-CD138 antibody; VH SEQ ID NO: 466, VL SEQ ID NO: 475 (antibody, V domains shown) VH: QVQLVQSGAEVKKPGSSVKVSCKASGYSFSSYYMHWVRQAPGQGLEWMGTIHPSDSTANYNQKFKGRVTITVDKSTSTAYMELSSLRSEDTAVYYCANFVYWGQGTTVTVSS VL: DIVMTQTPLSLSVTPGQPASISCKSSKSLLYKDGKTYLNWFLQKPGQSPQLLIYVVSTRASGVPDRFSGSGSGTDFTLKISRVEAEDVGVYYCQQLVEYPYTFGQGTKLEIK |  |  |  |  |  |  |  |  | dose-dependent binding | induced ADCC activity | dose-dependent binding | induced ADCC activity | induced ADCC activity | induced ADCC activity |  |  | dose-dependent binding |
